According to the supplement of paper PMC10567573:

B1: FANCE (parent)
chain: AQVLMLGQILELPWKEETFLVLQS

Variants of: B1
Test: protein stability index of a GFP-peptide fusion (GPS, HEK-293T) (PSI 1-6); higher = more stable
Conditions: c terminus: a fixed tail appended
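Also: lentivirally expressed fusions sorted by FACS into six bins by GFP to DsRed ratio, PSI derived from sequencing read proportions per bin multiplied by bin number.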

Variant	protein stability index
AQVLMLGQILELPWKEETCLVLQS	1.54
AQVLMLGQILELPWKEETDLVLQS	2.53
AQVLMLGQILELPWKEETELVLQS	2.25
AQVLMLGQILELPWKEETGLVLQS	2.11
AQVLMLGQILELPWKEETHLVLQS	3.46
AQVLMLGQILELPWKEETKLVLQS	1.53
AQVLMLGQILELPWKEETMLVLQS	2.68
AQVLMLGQILELPWKEETNLVLQS	2.02
AQVLMLGQILELPWKEETPLVLQS	1.55
AQVLMLGQILELPWKEETQLVLQS	1.51
AQVLMLGQILELPWKEETRLVLQS	2.1
AQVLMLGQILELPWKEETSLVLQS	1.75
AQVLMLGQILELPWKEETTLVLQS	1.56
AQVLMLGQILELPWKEETVLVLQS	2.48
AQVLMLGQILELPWKEETWLVLQS	1.88
AQVLMLGQILELPWKEETYLVLQS	2.24
AQVLMLGQILELPWKEETFAVLQS	3.76
AQVLMLGQILELPWKEETFCVLQS	1.48
AQVLMLGQILELPWKEETFDVLQS	1.6
AQVLMLGQILELPWKEETFEVLQS	2.24
AQVLMLGQILELPWKEETFGVLQS	1.81
AQVLMLGQILELPWKEETFHVLQS	2.03
AQVLMLGQILELPWKEETFIVLQS	2.31
AQVLMLGQILELPWKEETFKVLQS	1.91

Variant	protein stability index
AQVLMLGQILELPWKEETFMVLQS	1.73
AQVLMLGQILELPWKEETFNVLQS	2.56
AQVLMLGQILELPWKEETFPVLQS	1.94
AQVLMLGQILELPWKEETFQVLQS	2.98
AQVLMLGQILELPWKEETFRVLQS	2.61
AQVLMLGQILELPWKEETFSVLQS	2.3
AQVLMLGQILELPWKEETFTVLQS	1.76
AQVLMLGQILELPWKEETFVVLQS	3
AQVLMLGQILELPWKEETFWVLQS	2.87
AQVLMLGQILELPWKEETFYVLQS	3.73
AQVLMLGQILELPWKEETFLALQS	3.08
AQVLMLGQILELPWKEETFLCLQS	3.25
AQVLMLGQILELPWKEETFLDLQS	2.08
AQVLMLGQILELPWKEETFLELQS	2.57
AQVLMLGQILELPWKEETFLFLQS	2.56
AQVLMLGQILELPWKEETFLGLQS	3.02
AQVLMLGQILELPWKEETFLHLQS	1.77
AQVLMLGQILELPWKEETFLILQS	2.06
AQVLMLGQILELPWKEETFLKLQS	2.9
AQVLMLGQILELPWKEETFLNLQS	2.3
AQVLMLGQILELPWKEETFLPLQS	2.17
AQVLMLGQILELPWKEETFLQLQS	2.54
AQVLMLGQILELPWKEETFLRLQS	3.15
AQVLMLGQILELPWKEETFLSLQS	2.05

Variant	protein stability index
AQVLMLGQILELPWKEETFLTLQS	3.45
AQVLMLGQILELPWKEETFLWLQS	2.4
AQVLMLGQILELPWKEETFLYLQS	3.3
AQVLMLGQILELPWKEETFLVAQS	2.06
AQVLMLGQILELPWKEETFLVDQS	1.49
AQVLMLGQILELPWKEETFLVEQS	2
AQVLMLGQILELPWKEETFLVFQS	2.29
AQVLMLGQILELPWKEETFLVGQS	3.21
AQVLMLGQILELPWKEETFLVHQS	2.08
AQVLMLGQILELPWKEETFLVKQS	2.14
AQVLMLGQILELPWKEETFLVMQS	2.5
AQVLMLGQILELPWKEETFLVNQS	1.47
AQVLMLGQILELPWKEETFLVQQS	2.08
AQVLMLGQILELPWKEETFLVRQS	1.63
AQVLMLGQILELPWKEETFLVSQS	1.13
AQVLMLGQILELPWKEETFLVTQS	1.61
AQVLMLGQILELPWKEETFLVVQS	1.7
AQVLMLGQILELPWKEETFLVWQS	2.86
AQVLMLGQILELPWKEETFLVYQS	2.56
AQVLMLGQILELPWKEETFLVLAS	3.11
AQVLMLGQILELPWKEETFLVLCS	4.36
AQVLMLGQILELPWKEETFLVLDS	1.78
AQVLMLGQILELPWKEETFLVLFS	1.91
AQVLMLGQILELPWKEETFLVLGS	2.42

Variant	protein stability index
AQVLMLGQILELPWKEETFLVLIS	2.18
AQVLMLGQILELPWKEETFLVLKS	3.22
AQVLMLGQILELPWKEETFLVLMS	2.95
AQVLMLGQILELPWKEETFLVLNS	2.44
AQVLMLGQILELPWKEETFLVLPS	3.09
AQVLMLGQILELPWKEETFLVLTS	2.41
AQVLMLGQILELPWKEETFLVLVS	2
AQVLMLGQILELPWKEETFLVLWS	3.42
AQVLMLGQILELPWKEETFLVLYS	3.54
AQVLMLGQILELPWKEETFLVLQA	1.88
AQVLMLGQILELPWKEETFLVLQC	2.6
AQVLMLGQILELPWKEETFLVLQD	1.83
AQVLMLGQILELPWKEETFLVLQE	3.98
AQVLMLGQILELPWKEETFLVLQF	2.67
AQVLMLGQILELPWKEETFLVLQG	2.41
AQVLMLGQILELPWKEETFLVLQH	2.58
AQVLMLGQILELPWKEETFLVLQI	5.17
AQVLMLGQILELPWKEETFLVLQK	2.21
AQVLMLGQILELPWKEETFLVLQL	3.04
AQVLMLGQILELPWKEETFLVLQN	3.35
AQVLMLGQILELPWKEETFLVLQQ	1.69
AQVLMLGQILELPWKEETFLVLQR	2.69
